Consider one substance from patent US20110244457A1.

Assay [1] addresses human IL-8 (human) (UniProt P10145). Description: homogeneous immuno-SDA with tether oligonucleotide, 100 pM IL-8 in binding mixture, 1 nM Ab1-SA-TO plus RHP-3 with 1 nM Ab2-P2 (G265-5-LHP-3).
For assay [2] the target is unchanged. The experiment in a line: homogeneous immuno-SDA, 10 pM IL-8 in binding mixture, 1 nM Ab1-SA-P1 with 1 nM Ab2-P2 (G265-5-LHP-3) as second proximity member; signal needs both antibodies on IL-8.
Assay [3] shares this target. Description: homogeneous immuno-SDA with reversed probe RBD-3v3, 0.5 pM IL-8 in binding mixture, 20 pM Ab1-SA-P1 with 100 pM Ab2-P2 (G265-5-LHP-3), 50 nM blocker RDB-3z8.
The target is the same in assay [4]. Description: homogeneous immuno-SDA with reversed probe RBD-3v3, 0.1 pM IL-8 in binding mixture, 20 pM Ab1-SA-P1 with 100 pM Ab2-P2 (G265-5-LHP-3), 50 nM blocker RDB-3z8.
Assay [5] shares this target. The experiment in a line: homogeneous immuno-SDA, 100 pM IL-8 in binding mixture, 1 nM Ab1-SA-P1 with 1 nM Ab2-P2 (G265-5-LHP-3) as second proximity member.
The target is the same in assay [6]. Description: homogeneous immuno-SDA with reversed probe RBD-3v3, 0.25 pM IL-8 in binding mixture, 20 pM Ab1-SA-P1 with 100 pM Ab2-P2 (G265-5-LHP-3), 50 nM blocker RDB-3z8.
For assay [7] the target is unchanged. Description: homogeneous immuno-SDA with tether oligonucleotide, 10 pM IL-8 in binding mixture, 1 nM Ab1-SA-TO plus RHP-3 with 1 nM Ab2-P2 (G265-5-LHP-3).
Assay [8] has the same target. The experiment in a line: homogeneous immuno-SDA with reversed probe RBD-3v3, 1.0 pM IL-8 in binding mixture, 20 pM Ab1-SA-P1 with 100 pM Ab2-P2 (G265-5-LHP-3), 50 nM blocker RDB-3z8.
Assay [9] shares this target. The experiment in a line: homogeneous immuno-SDA, 1,000 pM IL-8 in binding mixture, 1 nM Ab1-SA-P1 with 1 nM Ab2-P2 (G265-5-LHP-3) as second proximity member.

human IL-8 (human), sequence (P10145 28-99 limits assumed): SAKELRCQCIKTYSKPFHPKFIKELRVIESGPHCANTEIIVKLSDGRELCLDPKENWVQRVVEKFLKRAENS
MAb G265-8 (BD Bioscience Pharmingen), directed against human IL-8, covalently coupled to streptavidin (anti-IL-8 IgG-SA conjugate), sequence (P22629 37-163): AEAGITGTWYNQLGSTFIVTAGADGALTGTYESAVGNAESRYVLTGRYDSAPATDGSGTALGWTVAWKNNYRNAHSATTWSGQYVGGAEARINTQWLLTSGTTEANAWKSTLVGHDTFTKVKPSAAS

Take “MAb G265-8 (BD Bioscience Pharmingen), directed against human IL-8, covalently coupled to streptavidin (anti-IL-8 IgG-SA conjugate) (from UniProt P22629 37-163) (antibody)”: the Average MOTA (n = 6) with human IL-8 (human) [1] stood at 32200; in the assay with human IL-8 (human) [2], 3980; with human IL-8 (human) [5] it was 73900; in the assay with human IL-8 (human) [7] it was 505; with human IL-8 (human) [9], 129000. Besides, the Average MOTA (n = 4) was found to be 118000 in the assay with human IL-8 (human) [3], 23100 with human IL-8 (human) [4], 81600 in the assay with human IL-8 (human) [6] and 129000 with human IL-8 (human) [8].
